Results taken from patent publication US6551840B2, “Method of screening TGF-β-inhibiting substances” (Chugai Seiyaku Kabushiki Kaisha, priority 1997, dated 2003).

Key:
Mv1Lu cell [1] = settings: Yamaguchi K. et al., (1995) Science 270, 2008-2011; cited from earlier work
Mv1Lu cell [2] = experiment: PAI-1 ELISA in culture supernatant of Mv1Lu cells with or without TGF-β1; format: cell-based, mink; settings: Mv1Lu cells with forced expression; 10 ng/ml TGF-β1, 24 hours; control cells about 16-fold
Description: Accordingly, TAK1DN was subjected to forced expression in the Mv1Lu cell to investigate the effects of TGF-β stimulation on PAI-1 expression. The TAK1DN expression vector used was the above-mentioned TAK1DN, and the TAK1 polypeptide mutant TAK1-K63W expression vector was constructed by inserting a gene (Yamaguchi K. et al., (1995) Science 270, 2008-2011) encoding the TAK1 polypeptide mutant TAK1-K63W in which the lysine residue at position 63 has been replaced with the tryptophan residue at the EcoRI and NotI restriction enzyme site of pCOS1 to give pTAK1K63W.
The Mv1Lu cells into which pTAK1Dn had been introduced (Mv/DN2), the cells into which pTAK1K63W had been introduced (Mv/KN7), and the control cells into which pCOS1 containing no inserted genes (Mv/NEO) had been introduced were each incubated in a low-serum medium (MEM medium containing 0.2% FBS; manufactured by GIBCO-BRL) with or without 10 ng/ml of TGF-β1 for 24 hours. The amount of PAI-1 in the culture supernatant was determined using the PAI-1 Quantative ELISA (manufactured by CALBIOCHEM).

B1: TAK1-K63W: catalytically inactive TAK1 polypeptide mutant in which the lysine residue at position 63 has been replaced with the tryptophan residue (protein, UniProt O43318 1-606, looked up, variant K63W)
Mitogen-activated protein …: MSTASAASSSSSSSAGEMIEAPSQVLNFEEIDYKEIEVEEVVGRGAFGVVCKAKWRAKDVAIWQIESESERKAFIVELRQLSRVNHPNIVKLYGACLNPVCLVMEYAEGGSLYNVLHGAEPLPYYTAAHAMSWCLQCSQGVAYLHSMQPKALIHRDLKPPNLLLVAGGTVLKICDFGTACDIQTHMTNNKGSAAWMAPEVFEGSNYSEKCDVFSWGIILWEVITRRKPFDEIGGPAFRIMWAVHNGTRPPLIKNLPKPIESLMTRCWSKDPSQRPSMEEIVKIMTHLMRYFPGADEPLQYPCQYSDEGQSNSATSTGSFMDIASTNTSNKSDTNMEQVPATNDTIKRLESKLLKNQAKQQSESGRLSLGASRGSSVESLPPTSEGKRMSADMSEIEARIAATTAYSKPKRGHRKTASFGNILDVPEIVISGNGQPRRRSIQDLTVTGTEPGQVSSRSSSPSVRMITTSGPTSEKPTRSHPWTPDDSTDTNGSDNSIPMAYLTLDHQLQPLAPCPNSKESMAVFEQHCKMAQEYMKVQTEIALLLQRKQELVAELDQDEKDQQNTSRLVQEHKKLLDENKSLSTYYQQCKKQLEVIRSQQQKRQGTS
effect of forced expression on PAI-1 expression stimulated by TGF-β (Mv1Lu cell [1]): PAI-1 expression is inhibited
increase in PAI-1 in the culture supernatant by TGF-β1 addition (Mv1Lu cell [2]): about 6.5 fold
